This is an account of results in the nanobody polyreactivity screen of Harvey et al. (2022).

This series is described as follows: yeast display, Sf9 membrane polyspecificity reagent, FACS + sequencing; frameworks hold sequencing errors. Summed up: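 Synthetic nanobody libraries on Saccharomyces cerevisiae BJ5465 were galactose-induced for 36–48 hours, stained 1 hour at 4 °C with 10% biotinylated, detergent-solubilized Sf9 membrane reagent and enriched on streptavidin microbeads. FACS then separated cells into low and high (top ~1%) gates by anti-HA (expression) and streptavidin (reagent binding) fluorescence. Genes were colony-PCR amplified, MiSeq 2 × 250 sequenced and CDR-length filtered. A clone's polyreactivity label is that of its gate of origin.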
With “QFQLVESVGGLVQAGGSLRLSCAASGYIFRHYAMGWYRQAPGKERELVAAISGRGGSTYYADSVKGRFTISRDNAKNTVYLQMNSLKPEDTAVYYCAKDRKAVGDFYYWGQGTQVTVSS”, the “polyreactivity (PSR sort gate)” value is “high polyreactivity”. Regarding “QFQLVESVGGLVQAGGSLRLTCAASGRIFLNYDMGWYRQEPGKDRELVAAITTGGSTYADSVKGRFTISRDNAKNTVYLQMNSLKAEDTAVYYCANRDRNKRDNWGQGTQVTGSS”, the “polyreactivity (PSR sort gate)” value is “low polyreactivity”. In the case of “QFQLVESVRGLFQAGGSLRLSCAASGSIFHPYGMGWYREDPVKERELVAAISSSGGDTYYADSVKGRFTISRDNAKNTVYLQMNSLKPEDTAVYYCATDHLDSYSVPGIGKHDYWGQGTQVTVSS”, the “polyreactivity (PSR sort gate)” value is on record as “low polyreactivity”. With “QFQLVESWVGLVQAGGSLRLSCAASGSTFPYYAIGWYRQAPGKERELVASIRKRGGGTYYADSVKGRFTISRDNAKNTVYLQMNSLKPEDTAVYYCAVRVYQFRFTGYDYWGHGTQVTVSS”, the “polyreactivity (PSR sort gate)” value is given as “high polyreactivity”. On to “QGKRVESGRGLVQAGGILRLSCAASGRTFYYYAMGWYRQSPGKERELVASITWSGGSTYYADSVKGRFTISRDNAKNTVYLQMNSLKPEDTAVYYCAARFVYYGVDYWGQGTQVTGSS”, for which the “polyreactivity (PSR sort gate)” value is reported as “high polyreactivity”. In the case of “QGLLVQSGGGLVQAGGSLRLSCAASGFTFRFYAMLWYRQAPGNERELVAAISSTGSTNYADSVKARCTISRDNAKNTVYLQKNSLKPEDTAVYYCNTDYYNRYYDWLIWYYYWGQGTQVTVSS”, the “polyreactivity (PSR sort gate)” value was “high polyreactivity”. For “QGQHVESGGGLVQAGGSLRLSCAASGLTFWVYAMGWYRQPRGKERELVAVITNGGRTNYADSVKGRFTISRDNAKNTVYLLMNSLKPEDSAVYYCARPNLLSGDYWGQGTQVTVSS” the value was “high polyreactivity”. For the sequence “QGQHVETGGGLVQAGCTLRLSCAASGFTCGNYAMGWYRQAPGKGRELVAAIDSDGSTDYADAVKGRFTISRDNAKNTVYLQMNSLKPEDTAVYYCAARFDYGPRGCDYWGPGTQVTVSS”, the “polyreactivity (PSR sort gate)” value is listed as “low polyreactivity”. Consider “QGQIVESWGGLVQAGGSLRLSCAASGTFFTYMGWYRQAPGKERELVAAIRNGGSTNYADSVKGRCTISGDNAKNTVYLQMHSLKPEDTAVYYCAARVTYSRGYRGGSRTKYDSWGQGTQVTVSS”, for which the “polyreactivity (PSR sort gate)” value is on record as “low polyreactivity”. For “QGQLVESAGGLVQAGGSLRLSCAAYGRIFGINAMGWYRQAPGKERELVAASTGGGSTYADSVKGRVTISRDNAKNTVYLHMNSLKPEATAVYYCAARKIWSSIAYYYWGQGTQVTVSS”, the “polyreactivity (PSR sort gate)” value is reported as “low polyreactivity”.

Turning to “QGQLVESGGALVQAGGSLRLSCAASGFILPIYAMAWYRQAPGKEREIVAAITWTGGSTYYADSVKGRFTISRDNAKNTVYLQMISLKPEDTAVYYCNVVSDIRLYYRYAYDYWGQGTQVTVSS”, the “polyreactivity (PSR sort gate)” value is given as “high polyreactivity”. The result for “QGQLVESGGALVQAGGSLRLSCAASGGTFFYYVMGWYRQAPGQERELVAAITGAGGSTYYADSVKGRFTSSRDNAKNTVYLQMNSLKPEDTAVYYCAADVSFTQSDGRLAEYGYWGQGTQVTVSS” reads “low polyreactivity”; that for “QGQLVESGGGEVQAGGSLRLSCAASGFTFGSNAMGWYRPAPGKERELVAAISSTGSTYYADSVKGRFTLSRDNAKNTVYVQMNSLKPEDPAVYYCNADSDTPRYDYWGQGTQVTVSS”, “low polyreactivity”; that for “QGQLVESGGGLGQAGGSLRLSCAASGSIFQPNDMGWYRQAPGKERELVATISTGGTTNYADSVKGRFTISRDNAKNTVYLQMNSLKPDDTAVYYCATDRTFTISNYDYWGQGTQVTVSS”, “low polyreactivity”. Take “QGQLVESGGGLVHAGVSLRLSCAASGSTFQPYAMGWNRQAPGKERELVAAINWSGGGTYYADSVKGRFTISRDNAKNTVYLQMNSLKPVDTAVYYCAAEVYTYWALNTWRYDYWGQGTQVTVSS”: the “polyreactivity (PSR sort gate)” value is recorded as “high polyreactivity”. With “QGQLVESGGGLVQAGASLRLSCAASGFIFAHYTMGWYRQAPGKARELVAAITRAGGSTFYADSVKGRFTISRDNAKNTVYLQRNSLKPEDTAVYYCNRGNRWNFDSWGQGTQVTVSS”, the “polyreactivity (PSR sort gate)” value is “high polyreactivity”. For “QGQLVESGGGLVQAGGILLLSCAASGIIFLYYAMGWYRQAPGKERELVAAITSGGSTYYADSVKGRFTISRDNAKNTVYLQMNSLKPEDTAVYYCNAPYHGREYEWGQGTQVTVSS” the value was “high polyreactivity”; for “QGQLVESGGGLVQAGGNLRLSCAASGSIFSDYTMGWYRQAPGKERELVAVITLSAGSTYYADSVKGRFTISRDNAKNTVYLQMNSLKPEDTAVYYCAADGWYYFGSGVFEYDYWGHGTQVTVSS”, “low polyreactivity”. The result for “QGQLVESGGGLVQAGGSLRISCAASGRIYRINAMGWYRQAPGKERELVANITSGGGSTYADSVKGRFTISRDNAKNTVYLQMNSRKPEDTAVYYCAARSRIGRYTYDYWGQGTQVTVSS” reads “high polyreactivity”; that for “QGQLVESGGGLVQAGGSLRLSCAASAFIFDDNTMGWYRQAPGKERELGAAISYSAGSTYYADSVKGRFTISRDNAKNTVYLQMNSLKPEDTAVYSCAAQHYWVTSYLSSYDYWGQGTQVTLSS”, “low polyreactivity”. On to “QGQLVESGGGLVQAGGSLRLSCAASGFIFRYYTMGWYRQAPGKERELVATITSGGSTYYADSVKGRFTISRDNAKNTVYLQMNSLKPEDTAVYYCNADTLGGKYVYQDRRGFDYWGQGTQVSVSS”, for which the “polyreactivity (PSR sort gate)” value was “high polyreactivity”. As to “QGQLVESGGGLVQAGGSLRLSCAASGFIFVVYAMGWYRQAPGKERELVAAITFSGGSTYYADSVKGRFTISRDNAKNTVYLQMISLKPEVTAVYYCAAAEHDREFDSWGHGTQVTVSS”, the “polyreactivity (PSR sort gate)” value was “low polyreactivity”. Regarding “QGQLVESGGGLVQAGGSLRLSCAASGFTFQYYAMGWSRQAPGKERELVAAISWSGGRTYYADSVKGRFTISRDNAKNTESLQMNSLKPEDTAVYYCAASYIVYPARYEDEGDYWGQGTQVTVSS”, the “polyreactivity (PSR sort gate)” value is reported as “high polyreactivity”.

Consider “QGQLVESGGGLVQAGGSLRLSCAASGGIFLGNAMGWYRQAPGKERELVASITRGGDTSYADSVKGRFTISRDNAKNTVYLQMNCLKPEDTAVYYCNADYYSVVEYDYWGQGTQLTVSS”, for which the “polyreactivity (PSR sort gate)” value is reported as “low polyreactivity”. For the sequence “QGQLVESGGGLVQAGGSLRLSCAASGITFGDNAMGWYRQAPGKERELVAAISSGGSTDYADSVKGRFTISRDNAKNTVYLQMNSLKPEDTAVYYCAFDWVSVPEYDYWGQGTQVTVSS”, the “polyreactivity (PSR sort gate)” value is on record as “low polyreactivity”. Consider “QGQLVESGGGLVQAGGSLRLSCAASGITFPGYAMGWSRQAPGKERELVAVIRKSGTSTYYADSVKGRFTISRDNEKNTVYLQMNSLKPEDTAVYYCADGGPSTVDVYWGQGTQVTVSS”, for which the “polyreactivity (PSR sort gate)” value is “low polyreactivity”. Take “QGQLVESGGGLVQAGGSLRLSCAASGITFPYYAMGWYRQAPGKERELVADITSGGSTNYADSVKGRFTISRDNAKNTVYLQMNSLKPDDTAVYYCAADWYVIYDYWGQGTQVTVSS”: the “polyreactivity (PSR sort gate)” value is “low polyreactivity”. The result for “QGQLVESGGGLVQAGGSLRLSCAASGRIFKYNAMGWYRQAPGKEMELVAVITSGGSTYYADSVKGRFTISRDNAKNTVYLQMNSLKPEDTAVYYCAKKYYIVHKFDYWGQGTQVTVSS” reads “low polyreactivity”; that for “QGQLVESGGGLVQAGGSLRLSCAASGRIFPYAMGWYRQAPGKERELVAAISRIGGITYYADSVKGRFTISRDNAKNTVYLQMNSLKPEDTAVYYCNARFHPYRWTFDYWGQGTQVTVSS”, “high polyreactivity”; that for “QGQLVESGGGLVQAGGSLRLSCAASGRIFQMYTMGWYRQAPGKERELDAAITSGTSTSYADSVKGRFTISRDNAKNPFYLQMNSLKPEDTAVYYCNKGSVCYSSVFVPYESDYWGQGTQVTVSS”, “low polyreactivity”. As for “QGQLVESGGGLVQAGGSLRLSCAASGRIFYIYFMGWYRQAPGKEREFVAAISQSGGSTYYADSVKGRFTISRDNAKNTVYLQMNSLKPEDTAVYYCAADRINYQHGYGYWGHGTQVTVSS”, the “polyreactivity (PSR sort gate)” value is recorded as “low polyreactivity”. As to “QGQLVESGGGLVQAGGSLRLSCAASGRTFQYYAMGWYRQATGKERELVAAITTVGSTKYADSVKGRFTISRDNAKNTVYLQMNSVKPEDTAVYYCAAGYRTRSGHRVPYSDYSWGQGTQVTVSS”, the “polyreactivity (PSR sort gate)” value is reported as “high polyreactivity”. For the sequence “QGQLVESGGGLVQAGGSLRLSCAASGRTFTINAMGWYRQATGKERELHAAISSDGNTNYADSVKGRFTISRDNAKNTVYLQMNSLKPEDTAVYYCAADWVRYSYRHGSYRVYYWGQGTQVTVSS”, the “polyreactivity (PSR sort gate)” value is given as “high polyreactivity”.

Regarding “QGQLVESGGGLVQAGGSLRLSCAASGRTFYRYAMGWYRQAPGNERELVASMNRGGSTYYADSVKGRFTFSRDNAKNTVYLQMNSLKPEDTAVYYCACYCYCYRGQGTQVTVSS”, the “polyreactivity (PSR sort gate)” value is given as “low polyreactivity”. For “QGQLVESGGGLVQAGGSLRLSCAASGRTLVIKVMGWYRKAPGKERELVAAISFRSGNTYYADSVKGRFTISRDNAKITVYLQMNSLKPEDTAVYDCAAYTYRTSTTSSYYNWGQGTQVTVSS”, the “polyreactivity (PSR sort gate)” value is listed as “high polyreactivity”.

In the case of “QGQLVESGGGLVQAGGSLRLSCAASGSIFDLNAMGWYRQAPGKERELVAAISTGGGTYYADSVKGRFTISRDTAKNTVYLQMNRLKPEDTAVYYCNRVTRWTYNYWGQGTQVTVSS”, the “polyreactivity (PSR sort gate)” value is listed as “high polyreactivity”. Regarding “QGQLVESGGGLVQAGGSLRLSCAASGSIFGPYVMGWYRPAPGTERELVASITSSGGSTYYADSVKGRFTISRDNAKNTVYLQMNSLKPEDTAVYYCAATRSFSGGYGYVSYDYWGQGTQVTVSS”, the “polyreactivity (PSR sort gate)” value is on record as “high polyreactivity”. On to “QGQLVESGGGLVQAGGSLRLSCAASGSIFRSYAMGWYRQAPGKERELVASISRRGGSTYYADSVKGRFTISRDNAKNTVYLQMNSLKPEDTAVYYCAAVRYNSRVSTSPSEMYYWGQGTQVTVSS”, for which the “polyreactivity (PSR sort gate)” value is listed as “low polyreactivity”. On to “QGQLVESGGGLVQAGGSLRLSCAASGSISGNYAMAWYRQAPGKERELVASIRYTGARTYYADSVKWRFTISRDNAKNTVYLQMNSLKPEDTAVYYCAADVKRDRVWGGDYWGQGTQVTVSS”, for which the “polyreactivity (PSR sort gate)” value is given as “low polyreactivity”.

Consider “QGQLVESGGGLVQAGGSLRLSCAASGSISTYYAMGWYRQAPGKERELVAAISSSGVRTYYADSVKGRFTIARDNAKNTVYLQMNSLKREDTAVSYCAAEVYYLYFYIMDYWGQGTQVTVSS”, for which the “polyreactivity (PSR sort gate)” value was “high polyreactivity”.

In the case of “QGQLVESGGGLVQAGGSLRLSCAASGSSLPYYAMGSYRQAPGKERELVATITDGTDTYYADSVKARFTISRDNAKNTVFLQMNSLKTDDSAVYYCNAYGYVYFLHEDYWGQGTQVTVSS”, the “polyreactivity (PSR sort gate)” value is on record as “low polyreactivity”.
